Laboratory results published in the supplement of paper PMC10126150.
± gives the standard deviation of the averaged measurements.

tested on: ATP; test: switch fluorescence ratio, 500 uM ATP over buffer (Cy3 cluster intensity, sum of 5 cycles each) (fold (ratio)); higher = stronger signal-on switching upon ATP binding; sequences stand for … in TCGTCGGCAGCGTCAGATGTGTATAAGAGACAGTTTTTTTTTTTTTTTTTTTTTTTTT…TC; details: aptamer strand: ATP DNA aptamer (quencher-CACCTGGGGGAGTATTGCGGAGGAAGG + anchor), 100 nM annealed; ATP concentration: 500 uM
Method in brief: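 Imaging in selection buffer was followed by imaging after 15 min with 500 uM ATP at 22 °C, for Cy3-labelled switching-strand clusters annealed to 100 nM quencher-labelled ATP aptamer on a modified Illumina MiSeq flow-cell. Five of these buffer/ATP cycles ran, separated by NaOH stripping and re-annealing. The fluorescence ratio per cluster is summed target-cycle over summed buffer-cycle Cy3 intensity, averaged per switch-domain sequence; clusters outside 100-1000 RFU were removed.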
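Also: ATP exposure 15 min at 22 °C before imaging.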

| Sequence | switch fluorescence ratio |
| --- | --- |
| TAATGCGGGA | 1 ± 0.027 |
| TAATGCTGTG | 0.984 ± 0.036 |
| TAATGCTTGG | 1.01 ± 0.031 |
| TAATGGAGGT | 0.979 ± 0.038 |
| TAATGGAGTA | 1.01 ± 0.052 |
| TAATGGATCG | 1 ± 0.044 |
| TAATGGCCTT | 0.9862 ± 0.0021 |
| TAATGGGATA | 1.02 ± 0.055 |
| TAATGGGATG | 0.974 ± 0.015 |
| TAATGGGGAT | 0.989 ± 0.022 |
| TAATGGGTGC | 1.06 ± 0.038 |
| TAATGGTCAC | 1.01 ± 0.011 |
| TAATGTTACT | 1.04 ± 0.039 |
| TAATGTTATG | 1.03 ± 0.017 |
| TAATGTTTGT | 0.986 ± 0.048 |
| TAATTACGGA | 1.06 ± 0.026 |
| TAATTACTAT | 1.12 ± 0.17 |
| TAATTATATT | 0.988 ± 0.023 |
| TAATTATCCG | 1.05 ± 0.044 |
| TAATTCGCGA | 1.15 ± 0.034 |
| TAATTCGGGG | 0.97 ± 0.057 |
| TAATTCTGGT | 0.965 ± 0.025 |
| TAATTCTTTT | 0.986 ± 0.029 |
| TAATTGGGAG | 1.01 ± 0.02 |
| TAATTGGGGG | 1 ± 0.03 |

| Sequence | switch fluorescence ratio |
| --- | --- |
| TAATTGGTTG | 0.982 ± 0.012 |
| TAATTTATCC | 1.022 ± 0.0095 |
| TAATTTGGA | 0.9652 ± 0.004 |
| TAATTTGGGA | 0.997 ± 0.013 |
| TAATTTGGGT | 1 ± 0.015 |
| TAATTTGTTG | 0.988 ± 0.028 |
| TAATTTTAGT | 1.0092 ± 0.00027 |
| TAATTTTATG | 0.998 ± 0.025 |
| TAATTTTTAG | 1.01 ± 0.025 |
| TAATTTTTGT | 0.993 ± 0.026 |
| TACAAAGATG | 1.025 ± 0.0056 |
| TACAAAGCAG | 1.11 ± 0.037 |
| TACAAAGGCG | 1.06 ± 0.018 |
| TACAAATTGT | 1.03 ± 0.025 |
| TACAAGAATA | 0.986 ± 0.03 |
| TACAATCGGA | 0.9791 ± 0.0067 |
| TACAATGCTT | 1.02 ± 0.017 |
| TACACCTTTC | 2.3 ± 0.073 |
| TACACTGGCG | 1.05 ± 0.057 |
| TACAGATGT | 1.028 ± 0.01 |
| TACAGCACTG | 1.29 ± 0.15 |
| TACAGCTAAA | 1.03 ± 0.032 |
| TACAGCTTAA | 1.022 ± 0.0019 |
| TACAGGAGGG | 1.01 ± 0.021 |
| TACAGGCTGA | 0.9858 ± 0.0046 |

| Sequence | switch fluorescence ratio |
| --- | --- |
| TACAGGGGAA | 1.09 ± 0.056 |
| TACAGGGTCG | 1.13 ± 0.049 |
| TACAGGGTTT | 1.021 ± 0.005 |
| TACAGGTGCA | 1.81 ± 0.022 |
| TACAGTGTTT | 0.975 ± 0.025 |
| TACAGTTACC | 1.31 ± 0.11 |
| TACATATTTT | 1.05 ± 0.043 |
| TACATCTGAA | 0.993 ± 0.023 |
| TACCAAAAAA | 1.2 ± 0.18 |
| TACCAACTTA | 1.1 ± 0.033 |
| TACCATATTT | 1.04 ± 0.021 |
| TACCATGCGG | 1.023 ± 0.01 |
| TACCATTTGT | 1 ± 0.044 |
| TACCCAGGGA | 1.64 ± 0.13 |
| TACCCGACTT | 1.13 ± 0.009 |
| TACCCGCTGT | 1.56 ± 0.39 |
| TACCGGATGG | 1.03 ± 0.021 |
| TACCGGGGGC | 1.14 ± 0.09 |
| TACCGGTTCG | 1 ± 0.011 |
| TACCGTGGGC | 1.04 ± 0.036 |
| TACCTATTTT | 1.035 ± 0.0014 |
| TACCTGGGTC | 0.996 ± 0.028 |
| TACCTGGTAC | 1.056 ± 0.0043 |
| TACGACCGTG | 1.01 ± 0.046 |
| TACGATAATC | 1.146 ± 0.011 |

| Sequence | switch fluorescence ratio |
| --- | --- |
| TACGATGGTT | 0.989 ± 0.028 |
| TACGATTTAT | 1.018 ± 0.0096 |
| TACGCACATA | 1.48 ± 0.15 |
| TACGCAGTAT | 1.15 ± 0.061 |
| TACGCCTGGT | 1.034 ± 0.0071 |
| TACGCTCTCA | 1.21 ± 0.23 |
| TACGGAGTCT | 0.9814 ± 0.0075 |
| TACGGATTAG | 1.051 ± 0.0051 |
| TACGGCAAAT | 1.121 ± 0.01 |
| TACGGCAGGG | 1.059 ± 0.0024 |
| TACGGGACTT | 1.26 ± 0.033 |
| TACGGGGAGT | 0.998 ± 0.026 |
| TACGGGGGTC | 1.02 ± 0.047 |
| TACGGGTAT | 0.9977 ± 0.0024 |
| TACGGGTTTT | 1.01 ± 0.039 |
| TACGGTACGG | 1.18 ± 0.04 |
| TACGGTCGCG | 0.9949 ± 0.0036 |
| TACGGTGGGG | 1.01 ± 0.027 |
| TACGTATAAT | 1.15 ± 0.015 |
| TACGTATGGG | 0.997 ± 0.021 |
| TACGTGAATT | 1.04 ± 0.05 |
| TACGTGATTT | 1.14 ± 0.093 |
| TACGTGGGTT | 0.994 ± 0.051 |
| TACGTTAGCT | 1.119 ± 0.0018 |
| TACGTTCTGA | 0.999 ± 0.049 |
